Test results: patent publication US20120264212

System: T1, Dab2 N-terminal phosphotyrosine binding (N-PTB) domain, residues 1-241 of human Disabled-2, wild type
T1 sequence: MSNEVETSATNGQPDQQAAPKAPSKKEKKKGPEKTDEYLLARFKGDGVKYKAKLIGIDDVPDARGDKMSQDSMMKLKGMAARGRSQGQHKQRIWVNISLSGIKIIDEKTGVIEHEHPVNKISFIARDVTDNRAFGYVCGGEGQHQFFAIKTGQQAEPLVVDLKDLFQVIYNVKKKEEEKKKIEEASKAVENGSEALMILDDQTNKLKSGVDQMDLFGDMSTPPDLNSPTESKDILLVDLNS

## thrombin
  thrombin limited proteolysis (SDS-PAGE): thrombin cleaved the N-PTB domain leaving a ˜25 kDa protease-resistant product
